Data from paper PMC3197213 (Structure (London, England : 1993), 2011).

Target: rat syntaxin-1A SNARE motif (residues 191-253) (rat, UniProt P32851 191-253)
Assay: NMR titration

Chain of rat syntaxin-1A SNARE motif (residues 191-253) (P32851 191-253): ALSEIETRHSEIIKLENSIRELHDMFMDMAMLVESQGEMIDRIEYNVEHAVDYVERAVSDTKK

B1: Rat Munc13-1 MUN-CD module (1148-1407,EF,1453-1531 fragment) (domain or fragment)
chain: not shown
Kd: > 300 µM
